Data published in publication PMC10102205, “Active and stable alcohol dehydrogenase-assembled hydrogels via synergistic bridging of triazoles and metal ions” (Nature Communications, 2023).

T1: TbSADH (Thermoanaerobacter brockii, UniProt P14941)
T1 construct: gene adh; recombinant from E. coli BL21(DE3), pET28a or pET22b vector, purified by AKTA; homotetramer
T1 sequence (P14941 1-352): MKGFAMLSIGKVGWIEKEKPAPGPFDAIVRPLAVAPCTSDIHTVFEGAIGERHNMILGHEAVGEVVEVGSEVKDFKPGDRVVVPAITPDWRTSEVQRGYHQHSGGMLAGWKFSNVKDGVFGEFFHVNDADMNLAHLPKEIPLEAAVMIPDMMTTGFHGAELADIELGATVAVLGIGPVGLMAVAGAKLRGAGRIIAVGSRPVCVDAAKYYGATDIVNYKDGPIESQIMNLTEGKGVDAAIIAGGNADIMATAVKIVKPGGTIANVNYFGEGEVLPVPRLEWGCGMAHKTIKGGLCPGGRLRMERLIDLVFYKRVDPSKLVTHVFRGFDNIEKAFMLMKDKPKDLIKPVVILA

B1: TbSADH (Thermoanaerobacter brockii) (protein)
chain: MKGFAMLSIGKVGWIEKEKPAPGPFDAIVRPLAVAPCTSDIHTVFEGAIGERHNMILGHEAVGEVVEVGSEVKDFKPGDRVVVPAITPDWRTSEVQRGYHQHSGGMLAGWKFSNVKDGVFGEFFHVNDADMNLAHLPKEIPLEAAVMIPDMMTTGFHGAELADIELGATVAVLGIGPVGLMAVAGAKLRGAGRIIAVGSRPVCVDAAKYYGATDIVNYKDGPIESQIMNLTEGKGVDAAIIAGGNADIMATAVKIVKPGGTIANVNYFGEGEVLPVPRLEWGCGMAHKTIKGGLCPGGRLRMERLIDLVFYKRVDPSKLVTHVFRGFDNIEKAFMLMKDKPKDLIKPVVILA
notes: recombinant from E. coli BL21(DE3), pET28a or pET22b vector, purified by AKTA; homotetramer

What was measured:
TbSADH = molecular target: T1, TbSADH; assay: isothermal titration calorimetry; assay type: binding
[1] = substrate: CC(=O)c1ccccc1; assay: asymmetric reduction, chiral HPLC, Michaelis–Menten fit; assay type: biochemical, Thermoanaerobacter brockii; details: free enzyme, not gelated, general assay: NADP^+ 1 mM, 10% IPA, phosphate buffer 50 mM pH 7.4, 30 °C

Row | Molecule | Kd (TbSADH) | Km [1] | kcat [1]
1 | Cc1nnc[nH]1 [3-Me-3N, 1H-3-methyl-1,2,4-triazole] | 770 µM | – | –
2 | B1 | – | 17.86 mM | 2.46 s⁻¹
